This assay addresses G-actin (rabbit skeletal muscle actin, monomeric) (rabbit, UniProt P68135 1-377). Briefly: ELISA; solid-phase assay: wells coated with 5 µM G-actin in PBS, 5 µM protein added, detected with anti-EhCoactosin antibody; in the presence of Ca2+ (2 mM) or EGTA (5 mM). The note with it: both partners purified. Background: ELISA stands for enzyme-linked immunosorbent assay.

B1: EhCoactosin, full-length wild type (natural protein)
chain: MSGFDLSEVAGPVAEVIDDKNEEVEFVVFGVQTQPNKLVVDAKGKGGLEEVKAALKEDALQFAYYRTISGDEESKRVKFVFISWAGEGIKKPKLRAVMSILKGDVKNVINNFHIELHATSLDDLVEDEIAAKIKKAGGADYSFNTTSN
notes: Cloned in pET28b between NcoI and XhoI; also called EhCoWT; WT EhCoactosin; source: E. coli BL21 (DE3), purified (Nickel-NTA, Superdex 75 gel filtration)
As to B1, the “fold of the level of binding of EhCaBP1” value was found to be 2 fold.

B2: EhCoactosin with the N-terminal seven amino acid residues deleted (domain or fragment)
chain: EVAGPVAEVIDDKNEEVEFVVFGVQTQPNKLVVDAKGKGGLEEVKAALKEDALQFAYYRTISGDEESKRVKFVFISWAGEGIKKPKLRAVMSILKGDVKNVINNFHIELHATSLDDLVEDEIAAKIKKAGGADYSFNTTSN
notes: Coactosin of Entamoeba histolytica, NCBI XP_650926.1, 7 residues deleted from the N terminus; The tag is told for the EhCoactosin gene in pET28b; also called EhCoΔN; N-terminal truncation mutant; source: E. coli BL21 (DE3), purified (Nickel-NTA, Superdex 75 gel filtration)
With B2, the “fold increase in binding against WT” value amounted to 2 fold.

The record behind these values is article PMC4161475, “EhCoactosin Stabilizes Actin Filaments in the Protist Parasite Entamoeba histolytica” (PLoS Pathogens, 2014).
